According to PMC314469, “Protein Interaction Networks by Proteome Peptide Scanning” (PLoS Biology, 2004):

T1: amphyphisin SH3 (AMPH_HUMAN), P49418
T1 chain: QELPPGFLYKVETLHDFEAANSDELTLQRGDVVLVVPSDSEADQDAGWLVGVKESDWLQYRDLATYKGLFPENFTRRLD


What was measured:
[1] = biological target: T1, amphyphisin SH3 (AMPH_HUMAN), P49418; assay: SPOT array
[2] = biological target: endophilin SH3 (SH3G2_HUMAN), Q99962; assay: SPOT array

Row | Binder | normalised SPOT signal, Boehringer light units (BLU); mean over the file's lines of this peptide [1] | normalised SPOT signal, Boehringer light units (BLU); mean over the file's lines of this peptide [2]
1 | PGRAPRRPLLEGGG [Q9H6A9 285-298] | 44.4 | 711
2 | ARRPLARPIKRGDI [O94844 155-168] | 227 | 265
3 | PGPAPKRPRGGGAG [Q06587 167-180] | 38.5 | 348
4 | PGRRPGRPPKFIRL [Q9NQV6 314-328] | 504 | 15700
5 | PEVQLRRPNWSKLV [O60610 754-767] | 35.6 | 152
6 | PGQGLRRPARPGPA [P78365 80-93] | 853 | 1310
7 | PFRALKRPLQFLGL [O00156 318-331] | 28.1 | 63.7
8 | PGVPPARPPPLTKV [Q9HCH0 869-883] | 807 | 10000
9 | PGQGPQRPRRPAKD [Q12984 75-88] | 4690 | 5880
10 | ARSYLRRPAVVYIG [O43188 617-630] | 35.3 | 60.1
11 | ARRPLARPIKPNEI [O94825 179-192] | 92.1 | 136
12 | PGLAPKRPLETGPR [Q96BF6 185-198] | 31.4 | 1350
13 | PGPPPGRPPGPPPG [Q9Y2W2 459-473] | 33.4 | 924
14 | PGEHPGRPGRGGSV [Q13577 1110-1123] | 414 | 31.7
15 | ARRPPPRPHRRAET [Q9NQE0 211-224] | 2030 | 2500
16 | PGPFPPRPPGPLGP [Q9BW18 356-370] | 68.3 | 1930
17 | PGHSPRRPRPLGLS [Q16538 521-534] | 45.1 | 2830
18 | PFHSLKRPRPPFAR [O75048 874-887] | 65.6 | 228
19 | PGAGLRRPTYTPPS [O15209 277-290] | 31.8 | 171
20 | PERLLLRPARIRAD [Q9BXY2 295-308] | 1020 | 106
21 | PGTPPRRPASPSAL [O75833 33-46] | 223 | 3750

Row | Binder | normalised SPOT signal, Boehringer light units (BLU); mean over the file's lines of this peptide [1] | normalised SPOT signal, Boehringer light units (BLU); mean over the file's lines of this peptide [2]
22 | PEVGPWRPKRLSGV [Q9NPU4 88-101] | 4730 | 2400
23 | PFGQLKRPRRNGLG [Q9NUE2 170-183] | 510 | 67.8
24 | PGVEPKRPSRPINL [Q9UN16 222-235] | 8660 | 227
25 | PGPSLRRPSRELDA [Q9NTN9 19-32] | 442 | 226
26 | PHADPGRPERLVFK [Q9Y5X7 158-171] | 169 | 8.4
27 | PGPGPRRPPWEGAD [Q96Q04 1263-1277] | 25 | 523
28 | PFFAPKRPFFPPRY [O75048 890-903] | 215 | 3080
29 | PGTGPWRPGRQRGA [Q9GZW5 233-246] | 656 | 156
30 | PEYRPKRPANQFVP [P13862 172-185] | 24.8 | 238
31 | PGGSPRRPPALAGP [P58401 8-21] | 46.4 | 241
32 | PGSLPSKPPPGPVP [Q8TEP0 205-219] | 48.3 | 22.8
33 | PGTSPRRPSVVPSR [Q96D64 48-61] | 35.3 | 587
34 | PGSGPPRPSRRLLD [O15427 206-219] | 748 | 2310
35 | PGGKPERPPKPGPP [P51511 339-353] | 570 | 4460
36 | PGPVPPRPPAAEPP [Q9H3S7 1093-1107] | 50.3 | 331
37 | PGDSPAKPPEGSAG [Q8WXD9 428-442] | 52.2 | 72.5
38 | PGFSLKRPRGLSRS [Q99640 37-50] | 40.1 | 41.8
39 | PHHELRRPVLQRQT [Q9H6E1 62-75] | 30.1 | 4.1
40 | PGPSPARPPAKPPE [Q14184 97-111] | 19.1 | 194
41 | PEVYLKRPAHSDDW [O14939 368-381] | 33 | 28.5
42 | PGNIPQRPDRLPMS [Q9P2I2 89-102] | 2130 | 360
